From US7223834 (Bristol-Myers Squibb, dated 2007)
Ends that are not written are not given here. * marks the point of attachment. Biotin = O=C1N[C@H]2[C@H](CS[C@H]2CCCCC(=O)*)N1

Molecular target: aggrecan degrading metallo protease (ADMP)
Experiment: cell-based or functional assay

B1: 30-mer inhibitor peptide (30-IP), QTVTWPDMELPLPRNITEGQARGSVILTVK-Biotin (peptide)
peptide: QTVTWPDMELPLPRNITEGQARGSVILTVK(Biotin)
modifications: not fully specified (N-terminus, C-terminus); printed as QTVTWPDMELPLPRNITEGQARGSVILTVK-Biotin
- IC50 for the inhibition of ADMP activity (microplate assay, cleavage of plate-bound 41-PS detected with BC-3 antibody): 11 µM
